Source: article PMC6737233, “A novel epitope-presenting thermostable scaffold for the development of highly specific insulin-like growth factor-1/2 antibodies” (The Journal of Biological Chemistry, 2019)

Assays:
[1] = molecular target: T1, human recombinant IGF-1 (insulin-like growth factor 1) (Homo sapiens (Human)., UniProt P05019); assay: SPR; Biacore T200, 25 °C, HBS-EP (10 mM HEPES pH 7.4, 150 mM NaCl, 1 mM EDTA, 0.05% Tween 20); mAb from clone culture supernatant captured by immobilised polyclonal rabbit anti-mouse IgG on CM5; analytes injected at 90, 30, 10, 3.3, 1.1, 0 nM, in triplicate; dissociation 5, 30 or 120 min (IGF-1 on anti–IGF-1: 120 min); 1:1 Langmuir fit; settings: one partner purified
T1 construct: insulin-like growth factor 1, human, mature 70-amino acid polypeptide hormone (7.7 kDa; 7.6-kDa recombinant analyte); loop positions 74–90 are counted on UniProtKB P05019; Two suppliers are named (PeproTech for SPR, Roche Penzberg for ECLIA); They are kept as one molecule because both are recombinant mature human IGF-1; also called mature human IGF-1; source: bought: PeproTech (100-11) (SPR); …

TtSlyD-IGF-1(74–90) = molecular target: T2, TtSlyD-IGF-1(74–90) (Thermus thermophilus (strain ATCC …)); assay: as above; settings: one partner purified
T2 construct: Thermus thermophilus SlyD, FKBP domain upstream of the insertion site (Nt-SlyD-FKBP); the printed cell begins with the MRGS tag, which replaces Met1; single glycine linker; human IGF-1 loop, positions 74–90 of UniProtKB P05019, grafted in place of the IF domain (TtSlyD residues 67–121); Thermus thermophilus SlyD, FKBP domain downstream of the insertion site (Ct-SlyD-FKBP), from Ala122; The SPR …
T2 chain: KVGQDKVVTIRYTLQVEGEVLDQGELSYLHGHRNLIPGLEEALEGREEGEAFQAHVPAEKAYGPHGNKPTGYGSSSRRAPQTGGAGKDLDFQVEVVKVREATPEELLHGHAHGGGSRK

[2] = molecular target: T3, human recombinant IGF-2 (insulin-like growth factor 2) (Homo sapiens (Human)., UniProt P01344); assay: as above; settings: one partner purified
T3 construct: insulin-like growth factor 2, human, mature 67-amino acid peptide (7.5 kDa; 7.2-kDa recombinant analyte); loop positions 53–65 are counted on UniProtKB P01344; also called mature IGF-2; source: bought: PeproTech (100-12)

[3] = molecular target: T1, human recombinant IGF-1 (insulin-like …); assay: as above; settings: one partner purified; remark: listed apart in the source
[4] = molecular target: T4, IGF-1 linear sequence stretch Lys75 to Arg84 (on 15-mer array peptides) (Homo sapiens (Human).); assay: peptide or protein array; Intavis CelluSpots slides with 15-mer peptides (off-set 1) of human IGF-1, and an alanine scan; 1 μg/ml antibody in TBST, ambient temperature, 2 h; HRP secondary antibody, chemiluminescence
T4 construct: human IGF-1, stretch Lys75–Arg84 (numbers on UniProtKB P05019), mapped with 15-mer peptides off-set by 1 amino acid; The peptides on the array were 15 amino acids long; source: synthetic peptide, spotted on Intavis CelluSpots glass slides
T4 chain: KPTGYGSSSR

T1 sequence (P05019 49-118): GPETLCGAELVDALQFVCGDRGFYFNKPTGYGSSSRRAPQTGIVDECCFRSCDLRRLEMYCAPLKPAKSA
T3 sequence (P01344 25-91): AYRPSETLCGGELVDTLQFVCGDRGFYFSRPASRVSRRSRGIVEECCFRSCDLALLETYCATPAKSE

B1: mAb anti–IGF-1(74–90) (antibody, V domains shown)
VH: QVQLQQSGAELVRPGSSVKISCKASGYAFSNLWMNWVKQRPGQGLEWIGQIYPGDGDTNYYGDFKGKATLTADSSSSTAYMQLSRLTSEDSAVYFCARIGYYGMDYWGQGTSVTVSS
VL: DVVLTQTPLSLPVNIGDEASISCKSTKSLLSSDGLTYLDWYLQKPGQSPQVLIYLVSNRFSGVPDRFSGSGSGTDFTLKISRVEAEDLGVYYCFQSNYLPTFGAGTKLELK
notes: Murine monoclonal antibody raised with TtSlyD-IGF-1(74–90); In the ECLIA it stood as a biotinylated or ruthenylated conjugate (lysine ε-amino groups); also called mAb IGF-1(74–90); anti–IGF-1 antibody; source: mouse hybridoma; clone culture supernatant captured on the sensor (SPR); purified from the cell culture supernatant (immunoconjugates for ECLIA)
With B1 the Kd [1] was 0.0055 nM, the koff [1] was 1.7e-05 s⁻¹ and the kon [1] was 3e+06 M⁻¹ s⁻¹. For the same binder, the Kd (TtSlyD-IGF-1(74–90)) was 0.031 nM, the koff (TtSlyD-IGF-1(74–90)) was 2.8e-05 s⁻¹ and the kon (TtSlyD-IGF-1(74–90)) was 920000 M⁻¹ s⁻¹. The binding result [2] was “no binding (tested: 90 nM)”, the t1/2 diss [3] was 11.3 h and the binding result [4] was “binds”.
